Laboratory results: FireProtDB (doi:10.1006/jmbi.1999.3099)

Details: Mus musculus, pH 7.5, Thermal, Potassium phosphate 50 mM, KCl 50 mM, reversible: yes, structure 1MBG

Transcriptional activator Myb V103L, P06876, sequence (P06876 whole entry V103L): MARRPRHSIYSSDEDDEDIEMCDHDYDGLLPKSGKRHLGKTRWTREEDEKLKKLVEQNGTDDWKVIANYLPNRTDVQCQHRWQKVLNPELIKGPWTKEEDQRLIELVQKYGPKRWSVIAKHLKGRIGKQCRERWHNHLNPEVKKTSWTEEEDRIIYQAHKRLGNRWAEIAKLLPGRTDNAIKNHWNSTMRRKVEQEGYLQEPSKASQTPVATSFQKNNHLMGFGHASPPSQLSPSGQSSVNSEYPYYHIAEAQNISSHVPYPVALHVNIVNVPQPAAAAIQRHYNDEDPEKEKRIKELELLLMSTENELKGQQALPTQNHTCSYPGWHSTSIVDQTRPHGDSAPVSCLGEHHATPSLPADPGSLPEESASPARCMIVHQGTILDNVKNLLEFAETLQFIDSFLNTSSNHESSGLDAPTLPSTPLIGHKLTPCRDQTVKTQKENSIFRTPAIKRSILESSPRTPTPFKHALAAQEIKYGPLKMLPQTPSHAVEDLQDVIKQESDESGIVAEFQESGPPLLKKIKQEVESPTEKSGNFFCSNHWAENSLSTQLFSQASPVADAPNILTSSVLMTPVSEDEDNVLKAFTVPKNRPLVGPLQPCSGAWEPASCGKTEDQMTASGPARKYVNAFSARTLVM
Transcriptional activator Myb V103I, P06876, sequence (P06876 whole entry V103I): as the sequence (P06876 whole entry V103L) above, with L103I counted along it
Transcriptional activator Myb V103A, P06876, sequence (P06876 whole entry V103A): as the sequence (P06876 whole entry V103L) above, with L103A counted along it

Substance	Tm (CD) [°C]	change of melting temperature, mutant - wild type (higher = more stable) (CD) [°C]	Tm (DSC) [°C]	unfolding enthalpy (calorimetric) (DSC) [kcal/mol]
Transcriptional activator Myb V103A, P06876	2.8	-36.8		
Transcriptional activator Myb V103I, P06876	46.6	7	47.5	32.1
Transcriptional activator Myb V103L, P06876	62	22.4	62	41.8
